From IntAct's records for PubMed 20935625

B1: Dynamin-1 (Homo sapiens), Q05193-5 (parent)
chain: MGNRGMEDLIPLVNRLQDAFSAIGQNADLDLPQIAVVGGQSAGKSSVLENFVGRDFLPRGSGIVTRRPLVLQLVNATTEYAEFLHCKGKKFTDFEEVRLEIEAETDRVTGTNKGISPVPINLRVYSPHVLNLTLVDLPGMTKVPVGDQPPDIEFQIRDMLMQFVTKENCLILAVSPANSDLANSDALKVAKEVDPQGQRTIGVITKLDLMDEGTDARDVLENKLLPLRRGYIGVVNRSQKDIDGKKDITAALAAERKFFLSHPSYRHLADRMGTPYLQKVLNQQLTNHIRDTLPGLRNKLQSQLLSIEKEVEEYKNFRPDDPARKTKALLQMVQQFAVDFEKRIEGSGDQIDTYELSGGARINRIFHERFPFELVKMEFDEKELRREISYAIKNIHGIRTGLFTPDLAFEATVKKQVQKLKEPSIKCVDMVVSELTATIRKCSEKLQQYPRLREEMERIVTTHIREREGRTKEQVMLLIDIELAYMNTNHEDFIGFANAQQRSNQMNKKKTSGNQDEILVIRKGWLTINNIGIMKGGSKEYWFVLTAENLSWYKDDEEKEKKYMLSVDNLKLRDVEKGFMSSKHIFALFNTEQRNVYKDYRQLELACETQEEVDSWKASFLRAGVYPERVGDKEKASETEENGSDSFMHSMDPQLERQVETIRNLVDSYMAIVNKTVRDLMPKTIMHLMINNTKEFIFSELLANLYSCGDQNTLMEESAEQAQRRDEMLRMYHALKEALSIIGDINTTTVSTPMPPPVDDSWLQVQSVPAGRRSPTSSPTPQRRAPAVPPARPGSRGPAPGPPPAGSALGGAPPVPSRPGASPDPFGPPPQVPSRPNRAPPGVPRITISDP

Variants of: B1
Conditions: with acts_rabit ACTA1, P68135

| Variant | effect of a mutation on the interaction |
| --- | --- |
| K415A | decreasing interaction |
| K414A | decreasing interaction |
| K421A | decreasing interaction |
| K426A | decreasing interaction |
| K419A | decreasing interaction |

Variants of: B1
Conditions: with acts_rabit ACTA1, P68135
Remark: another data set of the same source

| Variant | effect of a mutation on the interaction |
| --- | --- |
| K415E | decreasing interaction |
| K414E | decreasing interaction |
| K421E | decreasing interaction |
| K426E | decreasing interaction |
| K419E | decreasing interaction |

Variants of: B1
Conditions: with acts_rabit ACTA1, P68135
Remark: another data set of the same source

| Variant | effect of a mutation on the interaction |
| --- | --- |
| E434K | increasing interaction |
